Results: IntAct's records for PubMed 18571423

B1: Histone-binding protein RBBP7 (Homo sapiens), Q16576 (parent)
chain: MASKEMFEDTVEERVINEEYKIWKKNTPFLYDLVMTHALQWPSLTVQWLPEVTKPEGKDYALHWLVLGTHTSDEQNHLVVARVHIPNDDAQFDASHCDSDKGEFGGFGSVTGKIECEIKINHEGEVNRARYMPQNPHIIATKTPSSDVLVFDYTKHPAKPDPSGECNPDLRLRGHQKEGYGLSWNSNLSGHLLSASDDHTVCLWDINAGPKEGKIVDAKAIFTGHSAVVEDVAWHLLHESLFGSVADDQKLMIWDTRSNTTSKPSHLVDAHTAEVNCLSFNPYSEFILATGSADKTVALWDLRNLKLKLHTFESHKDEIFQVHWSPHNETILASSGTDRRLNVWDLSKIGEEQSAEDAEDGPPELLFIHGGHTAKISDFSWNPNEPWVICSVSEDNIMQIWQMAENIYNDEESDVTTSELEGQGS

Variants of: B1
Settings: with h4_human H4C16, P62805

effect of a mutation on the interaction	Variant
disrupting interaction	E356Q;D357N;E359Q;D360N
disrupting interaction	L30Y
disrupting interaction	L30Y;E356Q;D357N;E359Q;D360N
